This data set relates to DNA dMTase. The data set is described as follows: Demethylation of [mdC32pdG]n substrate (conversion of mdCMP to dCMP) with additives or pretreatment. Type of data set: biochemical, human. The note with it: transformation of mdC to C or release of volatile methyl residues; proteinase K 200 μg/ml 1 h 56° C.; RNase A 100 μg/ml. As to the method: (A) To assay the conversion of methyl-dCMP (mdCMP) to dCMP we used a previously described method (Szyf et al., 1995). Briefly, α^32P labeled, fully methylated poly[mdC^32PdG]n substrate was prepared as follows. One hundred ng of a double-stranded fully methylated (mdCpdG) oligomer (Pharmacia) were denatured by boiling, which was followed by partial annealing at room temperature. The complementary strand was extended with Klenow fragment (Boehringer Mannheim) using methyl-5-dCTP (mdCTP, 0.1 mM) (Boehringer Mannheim) and […] (100 μCi, 3000 Ci/mmol), and the unincorporated nucleotides were removed by chromatography through a NAP-5 column (Pharmacia). The NAP-5 chromatography was repeated to exclude minor contamination with unincorporated nucleotides. […] The digestion products were loaded onto a thin layer chromatography plate (TLC) (Kodak, 13255 Cellulose), separated in a medium containing, 132 ml Isobutyric acid:40 ml water:4 ml ammonia solution, autoradiographed and the intensity of the different spots was determined using a phosphorimager (Fuji, BAS 2000). ^32P labeled substrates and tritium labeled substrates were phosphoimaged using BAS 2000 plate and BAS-TR2040 phosphorimager plate respectively. (B) The second method determined removal of methylated residues from methylated DNA by measuring disappearance of ^3H—CH3 or ^14C—CH3 from the reaction mixture. […]

B1: RNase: RNase A (Sigma) used to treat column fractions (protein, UniProt P61823 27-150, looked up)
Ribonuclease pancreatic: KETAAAKFERQHMDSSTSAASSSNYCNQMMKSRNLTKDRCKPVNTFVHESLADVQAVCSQKNVACKNGQTNCYQSYSTMSITDCRETGSSKYPNCAYKTTQANKHIIVACEGNPYVPVHFDASV
On to B1, for which the “DNA dMTase activity after enzyme treatment” value was “not inhibited but rather enhanced”.

B2: proteinase K: proteinase K (Sigma) used to pretreat DNA dMTase (protein, UniProt P06873 106-384, looked up)
Proteinase K: AAQTNAPWGLARISSTSPGTSTYYYDESAGQGSCVYVIDTGIEASHPEFEGRAQMVKTYYYSSRDGNGHGTHCAGTVGSRTYGVAKKTQLFGVKVLDDNGSGQYSTIIAGMDFVASDKNNRNCPKGVVASLSLGGGYSSSVNSAAARLQSSGVMVAVAAGNNNADARNYSPASEPSVCTVGASDRYDRRSSFSNYGSVLDIFGPGTSILSTWIGGSTRSISGTSMATPHVAGLAAYLMTLGKTTAASACRYIADTANKGDLSNIPFGTVNLLAYNNYQA
Turning to B2, the “DNA dMTase activity after enzyme treatment” value is reported as “abolished”.

Source of the values: patent US7098012B1, “DNA demethylase, therapeutic and diagnostic uses thereof” (McGill University, priority 1997, dated 2006).
